Key:
Test in all cases: BLI Octet 384RED, antibody on Protein A sensor, Sortilin construct in solution
[1] = molecular target: T1, Sortilin SORTECDBAP_hB45678 (human/tetraodon chimera)
T1 construct: Shuffle construct
T1 chain: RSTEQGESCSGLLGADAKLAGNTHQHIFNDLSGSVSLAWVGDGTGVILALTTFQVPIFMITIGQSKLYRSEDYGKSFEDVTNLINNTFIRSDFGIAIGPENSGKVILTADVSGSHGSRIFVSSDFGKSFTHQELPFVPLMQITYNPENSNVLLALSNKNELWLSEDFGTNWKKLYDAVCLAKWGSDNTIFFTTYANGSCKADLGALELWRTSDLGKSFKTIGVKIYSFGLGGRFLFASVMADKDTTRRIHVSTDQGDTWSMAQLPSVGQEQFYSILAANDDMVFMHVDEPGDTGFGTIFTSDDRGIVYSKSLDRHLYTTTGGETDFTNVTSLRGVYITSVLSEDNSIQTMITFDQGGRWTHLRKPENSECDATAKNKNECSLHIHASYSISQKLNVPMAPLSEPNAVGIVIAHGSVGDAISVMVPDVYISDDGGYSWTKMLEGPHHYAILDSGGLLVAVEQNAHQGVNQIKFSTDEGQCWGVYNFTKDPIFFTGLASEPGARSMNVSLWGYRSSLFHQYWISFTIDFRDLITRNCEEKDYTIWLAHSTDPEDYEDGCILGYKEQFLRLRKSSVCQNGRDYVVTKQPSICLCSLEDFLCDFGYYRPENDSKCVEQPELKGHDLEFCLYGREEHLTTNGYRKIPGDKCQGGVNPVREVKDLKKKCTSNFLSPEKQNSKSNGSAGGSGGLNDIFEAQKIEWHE
Procedure: (§1) Binding kinetics of anti-Sortilin HuMab antibodies to Sortilin were determined using Octet 384RED (Fortebio, Menlo Park, USA). HuMab solutions of 2 μg/ml were made by dilution in sample diluent (ForteBio, art. No. 18-5028). Prot A sensors (ForteBio, art. no. 18-0004) were prewetted with kinetics buffer (1:10 sample diluent in PBS) for at least 600 seconds. Subsequently sensors were immobilized with HuMab solution for 600 seconds. A baseline response was obtained by dipping in kinetics buffer for 120 seconds. Association of SORTECD constructs was performed during a 1000 seconds incubation. This was followed by dissociation in kinetics buffer for 100 seconds. After dissociation, sensors were regenerated (10 mM Glycine pH 1.0) and neutralized (kinetics buffer) 3 times for 5 seconds. […] A molecular weight of 76.8 kDA was used for SORTECDHis. Data was fitted with ForteBio Analysis 6.4 software, using a global full fit.

Sortilin hSORTECDBAP = molecular target: T2, Sortilin hSORTECDBAP (human, UniProt Q99523 78-755, biotinylated on the BAP tag by co-expression of biotin ligase)
T2 construct: Soluble extracellular region (ECD, aa 1-755) with BAP tag
T2 sequence: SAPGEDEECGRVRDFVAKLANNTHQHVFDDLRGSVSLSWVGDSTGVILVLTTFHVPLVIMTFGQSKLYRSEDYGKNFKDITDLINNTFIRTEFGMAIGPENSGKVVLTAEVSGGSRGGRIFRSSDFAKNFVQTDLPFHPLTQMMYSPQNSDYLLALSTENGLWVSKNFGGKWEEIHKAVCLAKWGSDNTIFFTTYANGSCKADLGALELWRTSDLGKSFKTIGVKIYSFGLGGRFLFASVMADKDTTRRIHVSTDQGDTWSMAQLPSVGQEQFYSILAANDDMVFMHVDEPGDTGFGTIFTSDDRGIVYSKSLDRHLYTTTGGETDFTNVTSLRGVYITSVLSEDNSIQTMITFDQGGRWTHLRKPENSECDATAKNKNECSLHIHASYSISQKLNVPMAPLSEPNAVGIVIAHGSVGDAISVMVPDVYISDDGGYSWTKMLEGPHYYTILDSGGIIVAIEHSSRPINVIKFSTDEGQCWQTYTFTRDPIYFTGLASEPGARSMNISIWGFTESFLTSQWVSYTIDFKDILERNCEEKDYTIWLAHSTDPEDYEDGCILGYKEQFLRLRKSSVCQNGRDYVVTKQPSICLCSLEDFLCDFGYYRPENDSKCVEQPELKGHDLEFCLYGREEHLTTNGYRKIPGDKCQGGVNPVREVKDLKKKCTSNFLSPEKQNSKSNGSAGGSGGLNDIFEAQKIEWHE
Procedure: as §1

[2] = molecular target: T3, Sortilin SORTECDBAP_tetra (tetraodon)
T3 construct: Fully tetraodon Sortilin ECD with BAP tag; also called tetraodon Sortilin
T3 chain: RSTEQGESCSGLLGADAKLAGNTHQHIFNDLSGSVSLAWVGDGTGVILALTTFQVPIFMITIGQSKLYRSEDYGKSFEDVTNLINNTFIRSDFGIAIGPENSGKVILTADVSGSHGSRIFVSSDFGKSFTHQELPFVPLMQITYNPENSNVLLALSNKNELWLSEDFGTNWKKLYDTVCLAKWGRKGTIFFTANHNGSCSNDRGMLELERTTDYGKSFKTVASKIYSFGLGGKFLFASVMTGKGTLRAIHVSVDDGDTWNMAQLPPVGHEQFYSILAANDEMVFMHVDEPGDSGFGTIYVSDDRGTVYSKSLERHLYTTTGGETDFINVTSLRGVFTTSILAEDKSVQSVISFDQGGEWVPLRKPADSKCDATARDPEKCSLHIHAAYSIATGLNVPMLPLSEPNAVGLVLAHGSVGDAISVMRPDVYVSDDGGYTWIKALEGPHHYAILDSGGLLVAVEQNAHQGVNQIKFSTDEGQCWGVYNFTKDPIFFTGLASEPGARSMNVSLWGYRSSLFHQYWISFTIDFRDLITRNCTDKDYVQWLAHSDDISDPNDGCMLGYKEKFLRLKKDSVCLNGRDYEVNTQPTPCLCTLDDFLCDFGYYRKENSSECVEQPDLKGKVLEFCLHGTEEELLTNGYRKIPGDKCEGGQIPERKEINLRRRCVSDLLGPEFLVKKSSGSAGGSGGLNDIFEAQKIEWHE
Procedure: as §1

B1: 1320 (antibody, V domains shown)
VH: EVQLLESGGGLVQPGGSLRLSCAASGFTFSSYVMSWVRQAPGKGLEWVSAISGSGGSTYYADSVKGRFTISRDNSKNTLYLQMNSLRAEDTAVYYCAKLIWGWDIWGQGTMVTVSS
VL: EIVLTQSPATLSLSPGERATLSCRASQSVSSYLAWYQQRPGQAPRLLIYDASNRATGIPARFSGSGSGTDFTLSISSLEPEDFAVYYCQQRTNWSITFGQGTRLEIK
notes: also called IgG1-6003-1320; Antibody 1320
binding result [1]: no binding (tested: 10 µg/ml construct)
EC50 (Sortilin hSORTECDBAP): 0.0191 µg/mL
binding result [2]: no binding (tested: 10 µg/ml construct)

From patent US20230159643A1 (H LUNDBECK A S, published 2023)
